Patent US10918717 (GREEN CROSS, dated 2021)

Biological target: epidermal growth factor receptor (EGFR) (Homo sapiens (Human), UniProt P00533 25-645, limits assumed)
Assay: potency 1 binding assay (ELISA); RSM sample #15 (10 mg/ml antibody, 55 mM Na-acetate, pH 6.0, 150 mM NaCl) after storage at 60 C for 1 day, relative to control
Description: (11) Potency 1 (Binding assay): ELISA reader (Spectra Max 190, Molecular Devices) was used for potency 1 analysis.
The prepared samples were subjected to thermal tests, under the storage condition of: (i) 37° C. for two weeks; or (ii) 60° C. for one day.

EC50% as compared to a control group: 114 to 121%
B1: anti-EGFR antibody GC1118A (antibody, V domains shown)
VH: EVQLVESGGGVVQPGGSLRLSCAASGFTFSDYDMSWIRQAPGKGLEWVSGILGGSERSYYRDSVKGRFTISRDNSRKTLYLQMNSLRAEDTAVYYCARHGSPGYTLYAWDYWGQGTTVTVSS
VL: DIVMTQTPLSLPVTPGEPASISCRSNQDLTHSNGNTYLEWYLQKPGQSPRLLIYKVSNRFSGVPDRFSGSGAGTDFTLRISRVEAEDVGVYYCMQGTHWPWTFGQGTKVDIKR
notes: These may hold only the part of the antibody that was crystallised
